≈ marks a conversion by molar mass, not a printed value.
Experiments:
hUTII = molecular target: T1, hUTII (Homo sapiens, UniProt Q9UKP6); test: hUTII inhibition constant; assay type: binding; conditions: read-out: hUTII Ki
T1 sequence (Q9UKP6 1-389): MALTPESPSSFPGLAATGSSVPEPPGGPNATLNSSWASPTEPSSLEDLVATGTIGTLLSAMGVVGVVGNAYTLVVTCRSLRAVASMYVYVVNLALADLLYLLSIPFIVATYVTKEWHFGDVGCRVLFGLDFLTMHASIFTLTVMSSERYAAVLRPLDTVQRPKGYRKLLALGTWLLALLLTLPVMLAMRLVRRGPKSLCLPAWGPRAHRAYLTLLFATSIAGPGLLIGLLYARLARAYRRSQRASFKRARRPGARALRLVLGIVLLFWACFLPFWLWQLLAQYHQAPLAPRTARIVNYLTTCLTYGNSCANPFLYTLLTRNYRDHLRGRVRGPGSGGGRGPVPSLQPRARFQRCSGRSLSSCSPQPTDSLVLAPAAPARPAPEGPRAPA
Experimental: Using the discussed assays, the inhibition constants (Ki) for the five human somatostatin receptors (hSSTR1-hSSTR5) and the dopamine-2 receptor (hUTII and hDA2) were measured for the exemplified somatostatin-dopamine conjugates, as follows: […]

hDA2 = test: Dopamine-2 receptor radioligand binding assay; design: species or system human; conditions: [3H]spiperone
sst2 = molecular target: T2, sst2 (Homo sapiens, UniProt P30874); test: cAMP Responsive Element-Luciferase reporter gene assay, sst2-monotransfected HEK-293 cells; assay type: cell-based; conditions: read-out: IC50 value of cAMP inhibition
T2 construct: expressed in transfected cells; host or cells: HEK-293, transient
Experimental: A cAMP Responsive Element-Luciferase reporter gene assay in HEK-293 cells was used in this assay, wherein said HEK-293 cells were transiently transfected with D2 and/or sst2 cDNA. […] In sst2-monotransfected cells, the IC50 value of cAMP inhibition of Example 1 was 0.04 nM.

[1] = Solubility of Example 1 at various concentrations of DMA and PEG400; assay type: physicochemical
Experimental: A compound that may advantageously be used to practice the invention can be tested to determine its solubility at different DMA and PEG400 concentrations using the following procedure.
To about 1 mg of Example 1 were added increasing volumes of the above solvents or buffers. When a soluble volume was reached, the concentration was calculated by weight/volume. When Example 1 was not soluble, the solution was centrifuged and the supernatant was analyzed by HPLC to determine the concentrations. The determined concentration is treated as the solubility of Example 1 in that solvent or buffer.
The solution pHs were checked. They were about pH 7. No further adjustment was done.

T2 sequence (P30874 whole entry): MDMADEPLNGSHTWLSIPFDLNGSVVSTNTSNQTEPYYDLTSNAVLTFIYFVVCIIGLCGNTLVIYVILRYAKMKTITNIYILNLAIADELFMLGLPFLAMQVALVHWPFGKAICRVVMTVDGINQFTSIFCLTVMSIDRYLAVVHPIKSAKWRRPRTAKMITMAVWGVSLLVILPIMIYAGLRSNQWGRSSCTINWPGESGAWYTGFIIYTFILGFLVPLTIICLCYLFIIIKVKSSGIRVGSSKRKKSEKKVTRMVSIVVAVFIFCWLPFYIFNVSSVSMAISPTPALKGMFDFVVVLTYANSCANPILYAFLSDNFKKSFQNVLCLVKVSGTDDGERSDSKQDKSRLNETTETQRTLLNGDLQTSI

## CCCN1C[C@H](CSCC(=O)NCCCC[C@@H](NC(=O)CSC[C@@H]2C[C@@H]3c4cccc5[nH]cc(c45)C[C@H]3N(CCC)C2)C(=O)N[C@H]2CSSC[C@@H](C(=O)N[C@H](C(N)=O)[C@@H](C)O)NC(=O)[C@H](CC)NC(=O)[C@H](CCCCN)NC(=O)[C@@H](Cc3c[nH]c4ccccc34)NC(=O)[C@H](Cc3ccc(O)cc3)NC2=O)C[C@@H]2c3cccc4[nH]cc(c34)C[C@H]21 [Example 1, Dop2-DLys(Dop2)-cyclo[Cys-Tyr-DTrp-Lys-Abu-Cys]-Thr-NH2]
hUTII
  Ki: 509 nM
hDA2
  Ki: 15.8 nM
sst2
  IC50: 0.04 nM
[1]; 5% DMA in PBS, PBS pH 7, 5% DMA, by HPLC
  solubility: 130 µg/mL (≈ 76.7 µM)
[1]; 5% DMA in water, Water pH 7, 5% DMA
  solubility: > 100000 µg/mL
[1]; 5% PEG400 in PBS, PBS pH 7, 5% PEG400, by HPLC
  solubility: 50 µg/mL (≈ 29.5 µM)
[1]; 5% PEG400 in water, Water pH 7, 5% PEG400
  solubility: > 50000 µg/mL
[1]; 10% DMA in PBS, PBS pH 7, 10% DMA, by HPLC
  solubility: 480 µg/mL (≈ 283 µM)
[1]; 10% DMA in water, Water pH 7, 10% DMA
  solubility: > 100000 µg/mL
[1]; 10% PEG400 in PBS, PBS pH 7, 10% PEG400, by HPLC
  solubility: 330 µg/mL (≈ 195 µM)
[1]; 10% PEG400 in water, Water pH 7, 10% PEG400
  solubility: > 50000 µg/mL
[1]; 20% DMA in PBS, PBS pH 7, 20% DMA, by HPLC
  solubility: 780 µg/mL (≈ 460 µM)
[1]; 20% DMA in water, Water pH 7, 20% DMA
  solubility: > 100000 µg/mL
[1]; 20% PEG400 in PBS, PBS pH 7, 20% PEG400, by HPLC
  solubility: 750 µg/mL (≈ 443 µM)
[1]; 20% PEG400 in water, Water pH 7, 20% PEG400
  solubility: > 50000 µg/mL
[1]; 30% DMA in PBS, PBS pH 7, 30% DMA, by HPLC
  solubility: 4200 µg/mL (≈ 2480 µM)
[1]; 30% DMA in water, Water pH 7, 30% DMA
  solubility: > 100000 µg/mL
[1]; 30% PEG400 in PBS, PBS pH 7, 30% PEG400, by HPLC
  solubility: 2980 µg/mL (≈ 1760 µM)
[1]; 30% PEG400 in water, Water pH 7, 30% PEG400
  solubility: > 50000 µg/mL
[1]; 40% DMA in PBS, PBS pH 7, 40% DMA
  solubility: > 50000 µg/mL
[1]; 40% DMA in water, Water pH 7, 40% DMA
  solubility: > 100000 µg/mL
[1]; 40% PEG400 in PBS, PBS pH 7, 40% PEG400, by HPLC
  solubility: 3500 µg/mL (≈ 2070 µM)
[1]; 40% PEG400 in water, Water pH 7, 40% PEG400
  solubility: > 50000 µg/mL
[1]; PBS (0% DMA), PBS pH 7, 0% DMA, by HPLC
  solubility: 40 µg/mL (≈ 23.6 µM)
[1]; water (0% DMA), Water pH 7, 0% DMA, by HPLC
  solubility: 860 µg/mL (≈ 508 µM)
[1]; water vs PBS
  Solubility in water based versus PBS based solvents: much more soluble in water based solvents than in PBS based solvents

From patent US20110065632A1, “PHARMACEUTICAL COMPOSITIONS OF SOMATOSTATIN-DOPAMINE CONJUGATES” (priority 2008, published 2011)
